Reference: patent US20240040982, “CEREAL GRAIN WITH THICKENED ALEURONE” (Commonwealth Scientific and Industrial Research Organisation, published 2024)

Target: T1, TA1 (OsmtSSB-1a) (Oryza sativa)
T1 chain: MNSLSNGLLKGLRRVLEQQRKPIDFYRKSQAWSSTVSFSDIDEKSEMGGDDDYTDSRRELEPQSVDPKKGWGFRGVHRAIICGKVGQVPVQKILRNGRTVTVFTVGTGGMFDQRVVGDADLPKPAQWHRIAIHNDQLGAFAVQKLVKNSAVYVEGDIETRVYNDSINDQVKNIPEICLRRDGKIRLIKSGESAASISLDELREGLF
Test: EMSA; 2 ug protein, 750 amol probe, room temperature 10 min; competed by 2x, 20x, 200x unlabelled ssDNA
Conditions: tags: N-terminal 6xHis (pET-30a), expressed in E. coli; label: 3' biotin (biotinylated CTP)
Experimental: The affinity of purified 6×His-TA1 protein for ssDNA was determined using an EMSA (Thermo Cat. No. 20148X) as described in general terms by Reddy et al. (2001). A 45-nucleotide single-stranded oligonucleotide (SEQ ID NO:60) was labelled at the 3′ end with biotinylated CTP (Thermo Cat. No. 89818) according to the manufacturer's instructions. Recombinant 6×His-TA1 protein (2 μg) was added to 750 attomoles of biotin-labelled oligonucleotide and the mixture was incubated at room temperature for 10 min. A control sample lacked the 6×His-TA1 protein was applied to lane 1 in FIG. 11. Separate reactions were carried out in the presence of a 60-bp double-stranded DNA (dsDNA; control fragment from Thermo EMSA kit) to determine if the mobility shift was specific for ssDNA. Binding reaction products were separated by electrophoresis in a 5% native polyacrylamide gel in 0.5×TBE (Bio-Rad) and transferred to a nylon membrane (Bio-Rad). DNA bands were visualized using streptavidin-conjugated horseradish peroxidase (Thermo).

ACTCCCTCTCCCTTGCGGATTCGAATGGTAGTACATTCTCTTCGA (ssDNA) [45-nt EMSA ssDNA probe]
binding result: binds
